Reference: patent publication US20080058636A1, “METHODS OF MYOCARDIAL IMAGING” (Epix Pharmaceuticals, Inc., priority 2005, published 2008)
Bridge positions count the residues as written; N and C are the ends. Square brackets hold non-standard residues; d marks the D form. Ends that are not written are not given here.

B1: SEQ ID NO: 175 (peptide)
chain: GQWTCSGDEYTWH[dC]NYE
modifications: disulfide 5-14 (inferred); not fully specified (C-terminus); printed as Q W T C S G D E Y T W H c N Y E
B2: SEQ ID NO: 173 (peptide)
chain: GQWTCSGDEYT[dW]HCNYE
modifications: disulfide 5-14 (inferred); not fully specified (C-terminus); printed as Q W T C S G D E Y T w H C N Y E
B3: SEQ ID NO: 174 (peptide)
chain: GQWTCSGDEYTW[dH]CNYE
modifications: disulfide 5-14 (inferred); not fully specified (C-terminus); printed as Q W T C S G D E Y T W h C N Y E
B4: SEQ ID NO: 178 (peptide)
chain: GQWTCSGDEYTWHCNY[dE]
modifications: disulfide 5-14 (inferred); not fully specified (C-terminus); printed as Q W T C S G D E Y T W H C N Y e
B5: SEQ ID NO: 177 (peptide)
chain: GQWTCSGDEYTWHCN[dY]E
modifications: disulfide 5-14 (inferred); not fully specified (C-terminus); printed as Q W T C S G D E Y T W H C N y E
B6: SEQ ID NO: 172 (peptide)
chain: GQWTCSGDEY[dT]WHCNYE
modifications: disulfide 5-14 (inferred); not fully specified (C-terminus); printed as Q W T C S G D E Y t W H C N Y E
B7: SEQ ID NO: 176 (peptide)
chain: GQWTCSGDEYTWHC[dN]YE
modifications: disulfide 5-14 (inferred); not fully specified (C-terminus); printed as Q W T C S G D E Y T W H C n Y E
B8: SEQ ID NO: 171 (peptide)
chain: GQWTCSGDE[dY]TWHCNYE
modifications: disulfide 5-14 (inferred); not fully specified (C-terminus); printed as Q W T C S G D E y T W H C N Y E

target: human collagen type I (acid soluble, extracted from placenta, Sigma C7774) (human) (UniProt P02452); test: dried collagen assay
Sequence (P02452 162-1218 limits assumed, chain 1 of 2): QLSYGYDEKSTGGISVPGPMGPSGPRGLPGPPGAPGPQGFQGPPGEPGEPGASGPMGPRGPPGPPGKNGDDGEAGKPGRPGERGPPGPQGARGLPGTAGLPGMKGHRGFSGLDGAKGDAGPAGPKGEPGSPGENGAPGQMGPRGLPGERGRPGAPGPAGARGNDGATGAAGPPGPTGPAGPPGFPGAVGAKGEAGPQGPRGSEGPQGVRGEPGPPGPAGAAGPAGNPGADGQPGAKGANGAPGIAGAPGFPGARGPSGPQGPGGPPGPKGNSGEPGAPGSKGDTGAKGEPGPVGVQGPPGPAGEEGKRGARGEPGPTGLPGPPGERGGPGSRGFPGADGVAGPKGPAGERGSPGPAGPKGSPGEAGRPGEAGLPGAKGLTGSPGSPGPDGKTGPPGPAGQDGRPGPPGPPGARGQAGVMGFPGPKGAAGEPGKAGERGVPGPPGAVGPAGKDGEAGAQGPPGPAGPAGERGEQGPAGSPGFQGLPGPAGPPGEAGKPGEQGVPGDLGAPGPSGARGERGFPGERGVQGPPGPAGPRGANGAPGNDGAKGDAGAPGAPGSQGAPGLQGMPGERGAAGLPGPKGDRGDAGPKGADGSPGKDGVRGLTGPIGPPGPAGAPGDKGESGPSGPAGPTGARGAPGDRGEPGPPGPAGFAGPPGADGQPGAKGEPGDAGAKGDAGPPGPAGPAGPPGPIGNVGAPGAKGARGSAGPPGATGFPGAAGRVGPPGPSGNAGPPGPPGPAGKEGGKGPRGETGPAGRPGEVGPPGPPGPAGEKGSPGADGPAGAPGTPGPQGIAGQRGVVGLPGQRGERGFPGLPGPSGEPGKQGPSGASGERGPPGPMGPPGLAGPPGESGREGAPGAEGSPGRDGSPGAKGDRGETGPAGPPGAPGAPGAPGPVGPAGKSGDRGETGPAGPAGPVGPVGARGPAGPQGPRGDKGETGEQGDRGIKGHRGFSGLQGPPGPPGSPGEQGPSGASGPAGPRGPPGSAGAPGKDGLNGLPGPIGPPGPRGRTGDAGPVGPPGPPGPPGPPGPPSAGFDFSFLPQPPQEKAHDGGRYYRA
Sequence (P08123 80-1119 limits assumed, chain 2 of 2, further chain): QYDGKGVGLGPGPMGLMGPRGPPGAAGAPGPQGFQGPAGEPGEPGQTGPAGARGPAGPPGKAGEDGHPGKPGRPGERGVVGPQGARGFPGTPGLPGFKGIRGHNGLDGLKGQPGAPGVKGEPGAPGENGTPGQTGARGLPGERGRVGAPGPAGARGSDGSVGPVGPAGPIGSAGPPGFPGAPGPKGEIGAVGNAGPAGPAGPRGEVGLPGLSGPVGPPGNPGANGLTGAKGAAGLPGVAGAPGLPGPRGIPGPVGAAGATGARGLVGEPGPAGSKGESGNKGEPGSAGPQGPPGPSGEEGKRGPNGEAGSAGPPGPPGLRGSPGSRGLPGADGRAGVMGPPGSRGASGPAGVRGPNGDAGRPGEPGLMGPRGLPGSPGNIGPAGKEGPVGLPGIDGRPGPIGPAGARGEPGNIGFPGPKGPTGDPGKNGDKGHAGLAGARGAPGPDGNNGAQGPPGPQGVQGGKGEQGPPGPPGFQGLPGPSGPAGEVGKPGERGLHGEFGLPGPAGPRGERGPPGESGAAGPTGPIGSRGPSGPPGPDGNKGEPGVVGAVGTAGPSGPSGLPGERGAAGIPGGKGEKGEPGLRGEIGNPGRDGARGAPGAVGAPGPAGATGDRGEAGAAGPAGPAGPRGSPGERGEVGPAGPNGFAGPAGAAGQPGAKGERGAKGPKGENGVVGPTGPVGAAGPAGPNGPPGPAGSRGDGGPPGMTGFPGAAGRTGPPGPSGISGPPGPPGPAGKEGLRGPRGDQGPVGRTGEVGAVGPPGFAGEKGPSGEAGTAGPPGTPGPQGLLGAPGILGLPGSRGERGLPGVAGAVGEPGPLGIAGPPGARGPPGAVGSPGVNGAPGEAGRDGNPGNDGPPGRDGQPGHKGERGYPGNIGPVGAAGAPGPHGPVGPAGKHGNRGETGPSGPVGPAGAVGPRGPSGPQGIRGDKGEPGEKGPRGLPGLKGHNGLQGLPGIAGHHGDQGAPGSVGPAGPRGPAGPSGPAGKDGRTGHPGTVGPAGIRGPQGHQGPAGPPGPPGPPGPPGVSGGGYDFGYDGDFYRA

Row | % Collagen Binding [%] | Dried Human Collagen Binding [%] | Binder
1 | 81 |  | DWTCSADEYTWHCNYE [SEQ ID NO: 179]
2 | 73 |  | DWTCSLDEYTWHCNYE [SEQ ID NO: 183]
3 | 4 |  | GQWT[dC]SGDEYTWHCNYE (disulfide 5-14 (inferred)) [SEQ ID NO: 167]
4 | 11 |  | GQWTCSG[dD]EYTWHCNYE (disulfide 5-14 (inferred)) [SEQ ID NO: 169]
5 | 2 |  | B1
6 | 87 |  | DWTCSRDEYTWHCNYE [SEQ ID NO: 181]
7 | 81 |  | DWTCSSDEYTWHCNYE [SEQ ID NO: 180]
8 | 46 |  | G[dQ]WTCSGDEYTWHCNYE (disulfide 5-14 (inferred)) [SEQ ID NO: 164]
9 | 24 |  | GQWTCSGDEY[dA]WHCNA[dE] (disulfide 5-14 (inferred)) [SEQ ID NO: 124]
10 | 2 |  | GQ[dW]TCSGDEYTWHCNYE (disulfide 5-14 (inferred)) [SEQ ID NO: 165]
11 | 38 |  | DWTCSGDEYAWHCNYE [SEQ ID NO: 120]
12 |  | 3 | GWTCSQPGANVWNCTMQ (disulfide 4-14; not fully specified (C-terminus)) [SEQ ID NO: 85]
13 | 85 |  | GQWTCSGDEYSWHCNY[dE] (disulfide 5-14 (inferred)) [SEQ ID NO: 125]
14 | 5 |  | B2
15 |  | 3 | HWSCDLAMDNEWFCSTK (disulfide 4-14; not fully specified (C-terminus)) [SEQ ID NO: 84]
16 | 49 |  | GQWTCSGD[dE]YTWHCNYE (disulfide 5-14 (inferred)) [SEQ ID NO: 170]
17 | 3 |  | GQWTC[dS]GDEYTWHCNYE (disulfide 5-14 (inferred)) [SEQ ID NO: 168]
18 | 5 |  | B3
19 | 90 |  | B4
20 | 30 |  | B5
21 |  | 3 | GWACNTTSKGDWECTNL (disulfide 4-14; not fully specified (C-terminus)) [SEQ ID NO: 83]
22 | 57 |  | PWTCSGDEYAWHCNYE [SEQ ID NO: 121]
23 | 9 |  | B6
24 | 68 |  | GQWTCSGDEYAWHCNY[dE] (disulfide 5-14 (inferred)) [SEQ ID NO: 126]
25 | 2 |  | B7
26 | 89 |  | DWTCSYDEYTWHCNYE [SEQ ID NO: 182]
27 | 2 |  | GQW[dT]CSGDEYTWHCNYE (disulfide 5-14 (inferred)) [SEQ ID NO: 166]
28 | 13 |  | B8

target: rat collagen (acid soluble, type I, rat tail, Upstate 08-115) (rat) (UniProt P02454); test: dried collagen assay
Sequence (P02454 152-1207, chain 1 of 2): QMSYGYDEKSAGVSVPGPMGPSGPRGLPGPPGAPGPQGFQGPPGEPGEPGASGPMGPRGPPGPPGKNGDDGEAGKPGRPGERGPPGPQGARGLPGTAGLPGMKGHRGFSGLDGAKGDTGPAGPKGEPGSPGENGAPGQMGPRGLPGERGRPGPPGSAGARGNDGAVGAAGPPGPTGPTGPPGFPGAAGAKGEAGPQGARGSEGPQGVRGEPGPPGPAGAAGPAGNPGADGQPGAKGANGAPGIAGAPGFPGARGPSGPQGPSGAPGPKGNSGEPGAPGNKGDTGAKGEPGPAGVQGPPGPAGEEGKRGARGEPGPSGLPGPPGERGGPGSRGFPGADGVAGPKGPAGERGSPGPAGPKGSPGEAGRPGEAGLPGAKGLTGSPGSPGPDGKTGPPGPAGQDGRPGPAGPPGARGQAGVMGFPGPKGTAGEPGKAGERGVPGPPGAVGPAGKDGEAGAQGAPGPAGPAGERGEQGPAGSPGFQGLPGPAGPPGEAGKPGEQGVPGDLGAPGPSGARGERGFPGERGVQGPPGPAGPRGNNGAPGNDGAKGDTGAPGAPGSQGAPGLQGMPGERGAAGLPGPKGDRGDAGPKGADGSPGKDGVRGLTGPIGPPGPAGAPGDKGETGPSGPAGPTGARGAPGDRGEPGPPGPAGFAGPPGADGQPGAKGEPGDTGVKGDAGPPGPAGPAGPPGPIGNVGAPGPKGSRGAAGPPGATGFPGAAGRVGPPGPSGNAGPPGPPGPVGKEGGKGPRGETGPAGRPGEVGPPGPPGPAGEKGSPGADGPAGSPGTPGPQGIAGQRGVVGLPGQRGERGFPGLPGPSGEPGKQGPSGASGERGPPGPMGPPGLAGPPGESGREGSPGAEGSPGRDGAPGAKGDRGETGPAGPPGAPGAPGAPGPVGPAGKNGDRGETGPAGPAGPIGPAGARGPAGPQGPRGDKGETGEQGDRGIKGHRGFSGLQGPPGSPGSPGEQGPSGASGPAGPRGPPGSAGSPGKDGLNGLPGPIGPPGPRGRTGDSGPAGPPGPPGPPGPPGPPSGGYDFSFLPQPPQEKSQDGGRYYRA
Sequence (P02466 86-1125, chain 2 of 2, further chain): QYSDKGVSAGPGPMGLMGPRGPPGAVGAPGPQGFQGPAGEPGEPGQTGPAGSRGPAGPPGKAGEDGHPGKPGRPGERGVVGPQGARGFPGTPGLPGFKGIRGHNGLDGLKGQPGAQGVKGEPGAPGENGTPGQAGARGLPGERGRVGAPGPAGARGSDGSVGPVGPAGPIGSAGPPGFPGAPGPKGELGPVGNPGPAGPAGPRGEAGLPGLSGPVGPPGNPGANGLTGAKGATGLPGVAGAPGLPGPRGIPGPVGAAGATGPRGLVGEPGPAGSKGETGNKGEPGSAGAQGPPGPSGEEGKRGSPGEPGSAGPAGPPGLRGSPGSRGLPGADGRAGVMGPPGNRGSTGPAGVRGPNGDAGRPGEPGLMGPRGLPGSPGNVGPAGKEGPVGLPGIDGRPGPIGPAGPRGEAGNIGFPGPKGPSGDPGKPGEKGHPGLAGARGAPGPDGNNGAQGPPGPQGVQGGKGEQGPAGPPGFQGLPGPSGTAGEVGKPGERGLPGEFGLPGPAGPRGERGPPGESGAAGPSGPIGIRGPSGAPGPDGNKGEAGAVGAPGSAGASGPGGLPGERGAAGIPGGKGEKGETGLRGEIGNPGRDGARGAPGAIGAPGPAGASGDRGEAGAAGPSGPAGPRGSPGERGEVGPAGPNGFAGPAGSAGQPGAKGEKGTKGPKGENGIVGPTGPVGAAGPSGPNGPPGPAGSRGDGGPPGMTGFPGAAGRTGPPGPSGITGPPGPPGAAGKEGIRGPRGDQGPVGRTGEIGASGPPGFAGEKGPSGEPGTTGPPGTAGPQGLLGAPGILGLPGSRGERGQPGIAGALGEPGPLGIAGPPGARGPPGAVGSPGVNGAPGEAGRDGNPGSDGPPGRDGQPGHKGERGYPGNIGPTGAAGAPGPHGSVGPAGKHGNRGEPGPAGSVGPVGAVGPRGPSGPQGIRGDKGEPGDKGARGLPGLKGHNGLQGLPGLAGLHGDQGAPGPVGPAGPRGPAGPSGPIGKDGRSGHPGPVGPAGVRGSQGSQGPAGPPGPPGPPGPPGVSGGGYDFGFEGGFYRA

Row | % Collagen Binding [%] | Binder
29 | 75 | DWTCSADEYTWHCNYE [SEQ ID NO: 179]
30 | 63 | DWTCSLDEYTWHCNYE [SEQ ID NO: 183]
31 | 0 | GQWT[dC]SGDEYTWHCNYE (disulfide 5-14 (inferred)) [SEQ ID NO: 167]
32 | 4 | GQWTCSG[dD]EYTWHCNYE (disulfide 5-14 (inferred)) [SEQ ID NO: 169]
33 | 2 | B1
34 | 86 | DWTCSRDEYTWHCNYE [SEQ ID NO: 181]
35 | 72 | DWTCSSDEYTWHCNYE [SEQ ID NO: 180]
36 | 31 | G[dQ]WTCSGDEYTWHCNYE (disulfide 5-14 (inferred)) [SEQ ID NO: 164]
37 | 17 | GQWTCSGDEY[dA]WHCNA[dE] (disulfide 5-14 (inferred)) [SEQ ID NO: 124]
38 | 4 | GQ[dW]TCSGDEYTWHCNYE (disulfide 5-14 (inferred)) [SEQ ID NO: 165]
39 | 28 | DWTCSGDEYAWHCNYE [SEQ ID NO: 120]
40 | 86 | GQWTCSGDEYSWHCNY[dE] (disulfide 5-14 (inferred)) [SEQ ID NO: 125]
41 | 4 | B2
42 | 35 | GQWTCSGD[dE]YTWHCNYE (disulfide 5-14 (inferred)) [SEQ ID NO: 170]
43 | 2 | GQWTC[dS]GDEYTWHCNYE (disulfide 5-14 (inferred)) [SEQ ID NO: 168]
44 | 0 | B3
45 | 87 | B4
46 | 7 | YHACYQAGCWAW (disulfide 4-9; not fully specified) [SEQ ID NO: 137]
47 | 27 | B5
48 | 72 | PWTCSGDEYAWHCNYE [SEQ ID NO: 121]
49 | 8 | B6
50 | 6 | GQWTCSADEYTWHCNYE (disulfide 5-14; not fully specified) [SEQ ID NO: 142]
51 | 73 | GQWTCSGDEYAWHCNY[dE] (disulfide 5-14 (inferred)) [SEQ ID NO: 126]
52 | 2 | B7
53 | 86 | DWTCSYDEYTWHCNYE [SEQ ID NO: 182]
54 | 3 | GQW[dT]CSGDEYTWHCNYE (disulfide 5-14 (inferred)) [SEQ ID NO: 166]
55 | 6 | B8
